Data as given in patent publication US20250361295A1 (published 2025).

Tests used:
human LILRB4 [1] = biological target: T1, human LILRB4 (human, UniProt Q8NHJ6 22-448); experiment: competitive FACS; competition with NGM831
human LILRB4 [2] = biological target: T1, human LILRB4; experiment: ELISA; panel A
human LILRB4 [3] = biological target: T1, human LILRB4; experiment: ELISA; panel B
human LILRB4 [4] = biological target: T1, human LILRB4; experiment: FACS
human LILRB4 [5] = biological target: T1, human LILRB4; experiment: competitive FACS; competition with h2-H1-D7-E5-D5

T1 sequence (Q8NHJ6 22-448): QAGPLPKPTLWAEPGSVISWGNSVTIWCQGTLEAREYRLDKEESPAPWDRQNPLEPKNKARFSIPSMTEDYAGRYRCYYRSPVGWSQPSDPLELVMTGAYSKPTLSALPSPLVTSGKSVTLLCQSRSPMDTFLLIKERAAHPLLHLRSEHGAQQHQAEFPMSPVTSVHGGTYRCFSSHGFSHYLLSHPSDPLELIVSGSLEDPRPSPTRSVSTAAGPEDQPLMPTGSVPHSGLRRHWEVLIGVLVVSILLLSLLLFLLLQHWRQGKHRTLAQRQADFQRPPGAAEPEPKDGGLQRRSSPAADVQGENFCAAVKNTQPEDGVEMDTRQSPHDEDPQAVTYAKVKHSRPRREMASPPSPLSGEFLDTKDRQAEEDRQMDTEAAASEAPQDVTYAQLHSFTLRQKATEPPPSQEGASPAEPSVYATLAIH

Binder	EC50 (human LILRB4 [1]) [nM]	EC50 (human LILRB4 [2]) [nM]	EC50 (human LILRB4 [3]) [nM]	EC50 (human LILRB4 [4]) [nM]	EC50 (human LILRB4 [5]) [nM]
NGM831 (antibody, V domains shown) VH: EVQLQQSGPEVKPGASVKISCKASGYTFTDYNMDWVKQSHGKSEWIGYIYPSNGGTGYNQKFKSKATLTVDKSSNTAYMELHSLTSEDSAVYYCARVPYYDYLYYYAMDYWGQGTSVTVSS VL: QIVLSQSPAILSASPGEKVTMACRASSSVSFMHWYQQKPGSSPQPWIYATSNLASGVPARFSGSGSGTSYSLTISRVEAEDAATYYCQQWSTNPYMYTFGGGTKLEIK	3.67	0.0372	0.0265	0.849	–
ch8-B3-F6-H8 (antibody, V domains shown) VH: EVKVIESGGGLVQPGGSLKLSCAASGFDFSRYWMSWVRQAPGKGLEWIGEINPDSSAINYTPSLKDKFIISRDNAKNTLYLQMSKVRSEDTALYYCATSMTMDYWGQGTSVTVSS VL: DIVMTQSPSSMYASLGERVTITCKASQDIKSYLSWYQQKPWKSPKTLIYYATSLADGVPSRFSGSGSGQDYSLTISSLESDDTATYYCLQHGESPYTFGGGTKLEK	–	–	0.0317	1.49	–
IO-202 (antibody, V domains shown) VH: EVQLLESGGGLVQPGGSLRLSCAASGIDFSNHYYMYWVRQAPGKGLEWIGSIFSGDSASTYYADSAKGRFTISRDNSKNTLYLQMNSLRAEDTAVYYCARGMSTNDWASDLWGQGTLVTVSS VL: DIQMTQSPSSLSASVGDRVTITCQASESINSIYLAWYQQKPGKAPKLLIYRASTLASGVPSRFSGSGSGTDFTLTISSLQPEDFATYYCQQSYDWGDVENTFGGGTKVEIK	–	0.0172	0.0141	–	–
h2-H1-D7-E5-D5 (antibody, V domains shown) VH: EVQLVESGGGLVQPGGSLRLSCAASGFTFSSFGMHWVRQAPGKGLEWVAYISSGSSSIYYADTVKGRFTISRDNAKNSLYLQMNSLRAEDTAVYYCARGTGTGAMDYWGQGTLVTVSS VL: DIQMTQSPSSLSASVGDRVTITCRTSQDISNYLNWYQQKPGKAPKLLIYYTSKLHSGVPSRFSGSGSGTDFTFTISSLQPEDIATYFCQQGNTLPWTFGGGTKLEIK	–	7.96	–	–	–
h8-B3-F6-H8 (antibody, V domains shown) VH: EVQLVESGGGLVQPGGSLRLSCAASGFDFSRYWMSWVRQAPGKGLVWIGEINPESSAINYAPSLKDRFTISRDNAKNTLYLQMNSLRAEDTAVYYCATSMTMDYWGQGTLVTVSS VL: DIQMTQSPSSLSASVGDRVTITCKASQDIKSYLSWYQQKPGKAPKTLIYYATSLAGGVPSRFSGSGSGTDYTLTISSLQPEDFATYYCLQHGESPYTFGGGTKLEIK	–	–	0.0286	–	6.33
ch2-H1-D7-E5-D5 (antibody, V domains shown) VH: EVHLVESGGGLVQPGGSRKLSCAASGFTFSSFGMHWVRQPPEKGLEWVAYISSGSSSIYYADTVKGRFTISRDNPKNTLFLQMTSLRSEDTAMYYCARGTGTGAMDYWGQGTSVTVSS VL: DIQMTQTTSSLSASLGDRVTISCRTSQDISNYLNWYQQKPDGTVKLLIYYTSKLHSGVPSRFSGSGSGTDYSLTISNLDQEDIATYFCQQGNTLPWTFGGGTKLEIK	–	1.12	–	–	–
